# In publication PMC6354057 (Molecules and Cells, 2019):
# B1: Histidine triad nucleotide-binding protein (HINT) from Candida albicans (enzyme, UniProt Q59WG0 1-152, looked up)
# chain: MASHASCIFCKIIKGEIPSFKLIETAKTYSFLDIQPIAEAHVLIIPKHHGAKLHNIPDDYLSDILPVVKKLTKVLKLDENNTPEGEGYNVLQNNGRIAHQVVDHVHFHLIPKKDEATGLGVGWPAEATDFDKLGKLHEKLKEELAKVDNEKL
# Target: the molecule itself
# Assay: crystal structure
protein,measurement,value
B1,stoichiometry N,2
